The text below walks through data of US20230118024A1 (Chugai, published 2023).

Experiment [1] deals with T1, HLA-DQ2.5 on Ba/F3 cells (not in the form of a complex with a linked peptide) (human, UniProt P01909 24-254; P01920 33-261).
T1 construct: also called Ba/F3-HLA-DQ2.5; No peptide
T1 MHC II alpha: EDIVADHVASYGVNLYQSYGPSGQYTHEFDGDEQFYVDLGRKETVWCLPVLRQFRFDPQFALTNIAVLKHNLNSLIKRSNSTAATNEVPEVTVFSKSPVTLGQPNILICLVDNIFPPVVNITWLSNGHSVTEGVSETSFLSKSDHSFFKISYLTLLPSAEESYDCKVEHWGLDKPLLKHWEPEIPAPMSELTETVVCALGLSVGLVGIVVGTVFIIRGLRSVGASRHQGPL
T1 MHC II beta: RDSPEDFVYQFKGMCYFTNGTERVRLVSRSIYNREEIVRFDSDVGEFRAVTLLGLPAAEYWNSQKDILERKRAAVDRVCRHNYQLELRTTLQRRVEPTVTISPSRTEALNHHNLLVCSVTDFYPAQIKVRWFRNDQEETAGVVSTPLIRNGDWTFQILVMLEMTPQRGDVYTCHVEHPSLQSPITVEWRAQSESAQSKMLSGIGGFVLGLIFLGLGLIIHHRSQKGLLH
In words: FACS, Ba/F3 cells expressing the target, goat F(ab')2 anti-human IgG-PE (Example 7).

For the next experiment, the target named is T2, HLA-DQ2.2 on Ba/F3 cells (human, UniProt P01909 24-254; P01920 33-261).
T2 construct: also called Ba/F3-HLA-DQ2.2
T2 MHC II alpha: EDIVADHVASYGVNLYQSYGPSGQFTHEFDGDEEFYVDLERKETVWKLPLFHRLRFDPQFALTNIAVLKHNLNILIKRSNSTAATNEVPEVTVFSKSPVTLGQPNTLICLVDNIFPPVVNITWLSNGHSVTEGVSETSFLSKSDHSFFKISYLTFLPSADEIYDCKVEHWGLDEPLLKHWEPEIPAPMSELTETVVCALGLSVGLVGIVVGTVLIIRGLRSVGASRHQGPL
T2 MHC II beta: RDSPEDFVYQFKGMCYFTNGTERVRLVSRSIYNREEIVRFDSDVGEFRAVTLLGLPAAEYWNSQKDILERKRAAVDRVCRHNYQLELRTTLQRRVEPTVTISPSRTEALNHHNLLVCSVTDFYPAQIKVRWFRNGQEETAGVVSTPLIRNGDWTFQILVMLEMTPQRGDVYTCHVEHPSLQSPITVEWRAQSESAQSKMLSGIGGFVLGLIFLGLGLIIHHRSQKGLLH
Nature of the experiment: FACS, Ba/F3 cells expressing the target, goat F(ab')2 anti-human IgG-PE (Example 9).

Another experiment deals with T3, HLA-DQ8 on Ba/F3 cells (human, UniProt P01909 24-254; P01920 33-261).
T3 construct: also called Ba/F3-HLA-DQ8
T3 MHC II alpha: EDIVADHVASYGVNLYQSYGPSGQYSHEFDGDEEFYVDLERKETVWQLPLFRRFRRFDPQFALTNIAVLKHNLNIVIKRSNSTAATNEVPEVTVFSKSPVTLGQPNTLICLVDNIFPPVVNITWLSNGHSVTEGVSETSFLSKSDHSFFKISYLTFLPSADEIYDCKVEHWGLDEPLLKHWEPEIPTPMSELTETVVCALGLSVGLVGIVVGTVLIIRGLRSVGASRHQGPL
T3 MHC II beta: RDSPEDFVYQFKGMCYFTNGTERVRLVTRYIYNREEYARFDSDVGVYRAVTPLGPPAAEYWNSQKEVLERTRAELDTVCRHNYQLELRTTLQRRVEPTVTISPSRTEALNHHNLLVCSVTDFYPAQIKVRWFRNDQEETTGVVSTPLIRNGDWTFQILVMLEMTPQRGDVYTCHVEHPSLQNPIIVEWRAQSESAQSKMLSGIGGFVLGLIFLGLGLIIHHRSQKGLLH
In words: FACS, Ba/F3 cells expressing the target, goat F(ab')2 anti-human IgG-PE (Example 10).

The next experiment deals with T4, HLA-DQ5.1 on Ba/F3 cells (human).
T4 construct: also called BaF3-HLA-DQ5.1
The description is as above.

Experiment [2] deals with T5, HLA-DR on Ba/F3 cells (human, UniProt P01903 26-216; P79483 30-227, limits assumed).
T5 construct: whole, on cells; also called Ba/F3-HLA-DR
T5 MHC II alpha: not shown
T5 MHC II beta: not shown
The experiment is described as above.

Experiment [3] addresses T6, HLA-DP on Ba/F3 cells (human, UniProt P20036 29-222; P04440 30-225, limits assumed).
T6 construct: whole, on cells; also called Ba/F3-HLA-DP
Described as above.

Another experiment addresses T7, HLA-DQ6.3 on Ba/F3 cells (human, UniProt P01920 33-261).
T7 construct: also called BaF3-HLA-DQ6.3
In words: FACS, Ba/F3 cells expressing the target, goat F(ab')2 anti-human IgG-PE (Example 4.2). Background: In flow cytometry, cells or beads pass a laser one at a time.

The target in a further experiment is T8, HLA-DQ7.3 on Ba/F3 cells (human, UniProt P01909 24-254; P01920 33-261).
T8 construct: also called Ba/F3-HLA-DQ7.3
T8 MHC II alpha: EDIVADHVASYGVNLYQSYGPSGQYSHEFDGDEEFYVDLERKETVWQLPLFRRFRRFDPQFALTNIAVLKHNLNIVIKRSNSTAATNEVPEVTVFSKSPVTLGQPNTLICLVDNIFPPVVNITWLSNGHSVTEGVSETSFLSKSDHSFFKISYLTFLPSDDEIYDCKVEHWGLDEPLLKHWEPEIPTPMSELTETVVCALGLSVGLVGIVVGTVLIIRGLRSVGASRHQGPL
T8 MHC II beta: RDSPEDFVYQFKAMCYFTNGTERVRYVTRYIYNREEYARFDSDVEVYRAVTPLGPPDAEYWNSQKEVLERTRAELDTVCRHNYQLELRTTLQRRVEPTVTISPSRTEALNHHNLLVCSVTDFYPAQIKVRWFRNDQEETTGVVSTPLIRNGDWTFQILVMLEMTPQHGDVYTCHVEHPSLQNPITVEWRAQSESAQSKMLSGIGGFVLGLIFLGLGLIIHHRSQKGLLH
Described as above.

Experiment [4] addresses T9, HLA-DQ2.5 on HLA-DQ2.5 positive PBMC-B cells (human, UniProt P01909 24-254; P01920 33-261).
T9 construct: also called DQ2.5 + PBMC; HLA-DQ2.5+PBMC B cell
T9 MHC II alpha: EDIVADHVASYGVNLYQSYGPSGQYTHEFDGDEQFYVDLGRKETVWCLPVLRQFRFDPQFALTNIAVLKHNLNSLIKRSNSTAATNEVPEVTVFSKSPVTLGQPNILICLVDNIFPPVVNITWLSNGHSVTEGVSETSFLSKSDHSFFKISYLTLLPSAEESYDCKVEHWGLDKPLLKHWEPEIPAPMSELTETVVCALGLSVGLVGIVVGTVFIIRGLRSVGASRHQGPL
T9 MHC II beta: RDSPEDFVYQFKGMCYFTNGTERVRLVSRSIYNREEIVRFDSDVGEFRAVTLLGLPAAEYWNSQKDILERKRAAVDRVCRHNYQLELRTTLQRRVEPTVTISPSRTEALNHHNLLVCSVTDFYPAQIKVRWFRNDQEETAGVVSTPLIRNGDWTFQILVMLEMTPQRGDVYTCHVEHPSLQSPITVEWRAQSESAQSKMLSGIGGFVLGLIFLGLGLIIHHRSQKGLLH
Nature of the experiment: FACS, HLA-DQ2.5 positive PBMC with FcR blocking reagent, anti-CD19 stain, Alexa Fluor 555 anti-human IgG Fc antibody (Example 8).

Experiment [5] has as its target T6, HLA-DP on Ba/F3 cells. Nature of the experiment: FACS, FIG. 6.
For experiment [6], the target named is T5, HLA-DR on Ba/F3 cells. Nature of the experiment: FACS, FIG. 7.

T6 sequence (P20036 29-222 limits assumed, chain 1 of 4, other chains not shown): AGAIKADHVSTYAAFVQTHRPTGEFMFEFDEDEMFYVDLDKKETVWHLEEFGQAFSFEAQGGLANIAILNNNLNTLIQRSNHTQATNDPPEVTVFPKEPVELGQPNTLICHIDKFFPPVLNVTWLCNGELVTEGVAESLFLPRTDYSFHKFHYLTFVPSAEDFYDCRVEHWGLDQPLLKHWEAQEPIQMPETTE
T6 sequence (P04440 30-225 limits assumed, chain 2 of 4, other chains not shown): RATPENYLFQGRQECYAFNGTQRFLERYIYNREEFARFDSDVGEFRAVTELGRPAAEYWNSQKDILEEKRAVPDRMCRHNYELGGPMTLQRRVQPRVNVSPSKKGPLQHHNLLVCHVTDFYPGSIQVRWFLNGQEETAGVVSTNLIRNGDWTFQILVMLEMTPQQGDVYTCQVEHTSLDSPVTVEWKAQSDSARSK

B1: IC17 (antibody, V domains shown)
VH: QVQLQQSGPQLVRPGASVNISCKASGYSFTSYWMHWVNQRPGQGLEWIGMIDPSYSETRLNQKFKDKATLTVDKSSSTAYMQLSSPTSEDSAVYYCALYGNYFDYWGQGTTLTVSS
VL: DIQMTQSSSSFSVSLGDRVTITCKASEDIYNRLAWYQQKPGNAPRLLISGATSLETGVPSRFSGSGSGKDYTLSITSLQTEDVATYYCQQYWSTPYTFGGGTKLEVK
notes: also called IC17H; IC17L
On to B1, for which the binding result in experiment [1] is recorded as “no binding (tested: 10 microgram/mL)”; with HLA-DQ2.2 on Ba/F3 cells, “no binding (tested: 10 microgram/mL)”; with HLA-DQ8 on Ba/F3 cells it was “no binding (tested: 20 microgram/mL)”; with HLA-DQ5.1 on Ba/F3 cells it was “no binding (tested: 20 microgram/mL)”; with HLA-DR on Ba/F3 cells [2], “no binding (tested: 20 microgram/mL)”; with HLA-DP on Ba/F3 cells [3] it was “no binding (tested: 20 microgram/mL)”. The binding result was “no binding (tested: 20 microgram/mL)” with HLA-DQ6.3 on Ba/F3 cells, “no binding (tested: 20 microgram/mL)” in the experiment with HLA-DQ7.3 on Ba/F3 cells and “no binding (tested: 10 microgram/mL)” in experiment [4].

B2: DQN0089ff (antibody, V domains shown)
VH: QEQVVEYGGDLVQPEGSLTLTCKASGLDFSSTYYMCWVRQAPGKGLEWIGCIYGGSSDSTYYASWAKGRFTISKTSPTTVTLQMTSLTAADTATHFCATYDYGAVGYDLWGPGTLVTVSS
VL: EVVVTQTPASVEVAVGGTVTIKCQASQNISPYLSWYQQKPGQPPKLLIYKASTLASGVSSRFKGSGSGTQFTLTISDLECADAATYYCQNNYGVSINYGHTFGGGTKVEIK
notes: also called DQN0089Hf; DQN0089Lf
Regarding B2, the binding result with HLA-DP on Ba/F3 cells [5] and with HLA-DR on Ba/F3 cells [6] was “binds” throughout.
